Reference: paper PMC7652997, “Regulation of γ-Aminobutyrate (GABA) Utilization in Corynebacterium glutamicum by the PucR-Type Transcriptional Regulator GabR and by Alternative Nitrogen and Carbon Sources”
Each block holds one molecule with its values, some of them ahead of it.

Columns and labels:
[1] = target: GabR (Cg0565), PucR-type transcriptional regulator of Corynebacterium glutamicum (Corynebacterium glutamicum ATCC 13032); experiment: SEC; Tag-free GabR on Superdex 200 Increase 10/300 GL, 100 mM phosphate buffer pH 7.0 with 1 mM DTT, 0.75 mL/min; native size from a calibration curve (Kav versus log Mr) of standard proteins; apparent mass 420 kDa against a theoretical monomer mass of 55.75 kDa
GabR [2] = target: T1, GabR (Corynebacterium glutamicum WT, UniProt Q8NT36 1-504); experiment: EMSA; reasonable binding; 10 mM Tris-HCl pH 7.5, 50 mM NaCl, 5% glycerol, 0.005% Triton X-100, 20 min at room temperature; 100 ng DNA, 0-2.6 uM GabR monomer; native PAGE in TB buffer pH; details: protein: recombinant; tags: N-terminal His10 removed with TEV protease; chain copies: 8; blunt
T1 sequence: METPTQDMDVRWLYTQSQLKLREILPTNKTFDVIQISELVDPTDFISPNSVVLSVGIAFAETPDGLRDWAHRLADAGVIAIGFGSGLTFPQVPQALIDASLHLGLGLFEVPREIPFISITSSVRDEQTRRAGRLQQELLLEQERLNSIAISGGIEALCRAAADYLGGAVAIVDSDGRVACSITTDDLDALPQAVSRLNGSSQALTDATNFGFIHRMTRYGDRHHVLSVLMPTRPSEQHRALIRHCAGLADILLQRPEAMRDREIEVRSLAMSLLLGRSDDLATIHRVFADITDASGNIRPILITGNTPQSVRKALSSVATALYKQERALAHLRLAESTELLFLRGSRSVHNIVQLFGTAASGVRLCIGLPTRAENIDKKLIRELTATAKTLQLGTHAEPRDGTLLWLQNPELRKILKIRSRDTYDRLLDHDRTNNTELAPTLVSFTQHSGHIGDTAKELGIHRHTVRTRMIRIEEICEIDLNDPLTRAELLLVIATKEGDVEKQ

GabR [3] = target: T1, GabR; experiment: EMSA; complex band absent from negative control; 10 mM Tris-HCl pH 7.5, 50 mM NaCl, 5% glycerol, 0.005% Triton X-100, 20 min at room temperature; 100 ng DNA, 0-2.6 uM GabR monomer; native PAGE in TB buffer pH; details: protein: recombinant; tags: N-terminal His10 removed with TEV protease; chain copies: 8; blunt

- stoichiometry N [1]: 8
Molecule: GabR (Cg0565), PucR-type transcriptional regulator of Corynebacterium glutamicum (natural protein)

B1: FS3 (dsDNA)
DNA 1: CTGTCAATTATCCATATGGGCGAAATATTGT
DNA 2: ACAATATTTCGCCCATATGGATAATTGACAG
- binding result (GabR [2]): binds

B2: NC3 (dsDNA)
DNA 1: CACAGGAGGAACCGTGGAAGATCTCTCATAC
DNA 2: GTATGAGAGATCTTCCACGGTTCCTCCTGTG
- binding result (GabR [3]): no binding
